The values below come from patent US5639663, “Bifunctional genetic markers” (National Research Council of Canada, dated 1997).

For this experiment, the target named is beta-glucuronidase (GUS), unfused, expressed from pGK1 (E. coli, UniProt P05804). The experiment can be described thus: molecular sieve chromatography (Superose 6) of E. coli extract co-expressing unfused GUS and NPT-II; enzyme activities of the fractions.

B1: neomycin phosphotransferase-II (NPT-II), unfused, expressed from pGS39 (enzyme)
chain: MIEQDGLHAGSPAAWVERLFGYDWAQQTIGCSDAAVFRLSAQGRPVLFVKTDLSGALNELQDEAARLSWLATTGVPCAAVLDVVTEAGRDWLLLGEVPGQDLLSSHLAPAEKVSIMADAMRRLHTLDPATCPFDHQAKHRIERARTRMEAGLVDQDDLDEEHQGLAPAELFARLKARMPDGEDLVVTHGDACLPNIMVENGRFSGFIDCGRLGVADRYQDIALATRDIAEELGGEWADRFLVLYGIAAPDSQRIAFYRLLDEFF
With B1, the binding result is recorded as “no binding”.
